B1: FLAG-tagged FBXO44 FBA domain (FBXO44^FBA) [human] / RGS2^5–16 peptide (RGS2 degron, Met^5–Met^16) [not stated] (parent complex)
chain 1: FYFLRSLHRNLLHNPCAEEGFEFWSLDVNGGDEWKVEDLSRDQRKEFPNDQVKKYFVTSYYTCLKSQVVDLKAEGYWEELMDTTRPDIEVKDWFAARPDCGSKYQLCVQLLSSAHAPLGTFQPDPATIQQKSDAKWREVSHTFSNYPPGVRYIWFQHGGVDTHYWAGWYGPRVTNSSITIGP
chain 2: MFLAVQHDCRPM

In one test the parent is B1. Put plainly: peptide microarray (PEPperPRINT), α-FLAG fluorescence; three independent experiments with three technical replicates each; parent: 100; read off a plot.
On to chain 2 MFLAVQHDCRSM, for which the percent of parent was approximately 100 % Parent.
Same read-out and setting: as for chain 2 MFLAVQHDCRHM, the figure is approximately 85 % Parent; as for chain 2 MFLAVQHDCRWM, approximately 110 % Parent; as for chain 2 MFLAVQHDCRIM, approximately 88 % Parent.
Same read-out and setting: in the case of chain 2 MFLAVQHDCRMM it was approximately 100 % Parent; in that of chain 2 MFLAVQHDCRTM, approximately 85 % Parent; in that of chain 2 MFLAVQHDCRNM, approximately 85 % Parent.
On the same count and under the same terms, as for chain 2 MFLAVQHDCRDM, the figure is approximately 130 % Parent.
Consider chain 2 MFLAVQHDCRAM, for which the percent of parent was approximately 72 % Parent.
On the same count and under the same terms, in the case of chain 2 MFLAVQHDCRKM it was approximately 150 % Parent; in that of chain 2 MFLAVQHDCRQM, approximately 90 % Parent.
As to chain 2 MFLAVQHDCRRM, the percent of parent is approximately 260 % Parent.
With chain 2 MFLAVQHDCRLM, the percent of parent is approximately 82 % Parent.
On the same count and under the same terms, in the case of chain 2 MFLAVQHDCRFM it was approximately 100 % Parent; in that of chain 2 MFLAVQHDCRVM, approximately 85 % Parent; in that of chain 2 MFLAVQHDCRCM, approximately 120 % Parent.
On to chain 2 MFLAVQHDCREM, for which the percent of parent is approximately 88 % Parent.
In the case of chain 2 MFLAVQHDCRGM, the percent of parent was approximately 68 % Parent.
On the same count and under the same terms, as for chain 2 MFLAVQHDCRYM, the figure is approximately 110 % Parent.

Variants of B1 are the subject of another test. The test is described as above. The source holds these as a separate data set.
For chain 2 MFLAVQHDCRKM, the percent of parent is approximately 150 % Parent Peptide.
The same measure, in the same setting: in the case of chain 2 MFLAVQHDCRRM it was approximately 260 % Parent Peptide; in that of chain 2 MFLAVQHRCRPM, approximately 280 % Parent Peptide.
Consider chain 2 MFLAVQHKCRPM, for which the percent of parent was approximately 220 % Parent Peptide.
The same measure, in the same setting: in the case of chain 2 MFLAVQHDCRPR it was approximately 200 % Parent Peptide; in that of chain 2 MFLAVQRDCRPM, approximately 140 % Parent Peptide; in that of chain 2 MFLAVQHDRRPM, approximately 130 % Parent Peptide.

Variants of B1 are the subject of another test. The description is as above. The source holds these as a separate data set.
As to chain 2 MFLAVQHDCLPM, the percent of parent was approximately 82 % Parent.
Still for that read-out and setting: as for chain 2 MFLAVQHDCGPM, the figure is approximately 78 % Parent; as for chain 2 MFLAVQHDCIPM, approximately 78 % Parent.
Still for that read-out and setting: as for chain 2 MFLAVQHDCHPM, the figure is approximately 75 % Parent; as for chain 2 MFLAVQHDCEPM, approximately 110 % Parent; as for chain 2 MFLAVQHDCNPM, approximately 82 % Parent.
With chain 2 MFLAVQHDCWPM, the percent of parent was approximately 120 % Parent.
Consider chain 2 MFLAVQHDCAPM, for which the percent of parent was approximately 72 % Parent.
Same read-out and setting: in the case of chain 2 MFLAVQHDCFPM it was approximately 95 % Parent; in that of chain 2 MFLAVQHDCTPM, approximately 80 % Parent.
Same read-out and setting: as for chain 2 MFLAVQHDCKPM, the figure is approximately 80 % Parent; as for chain 2 MFLAVQHDCMPM, approximately 88 % Parent; as for chain 2 MFLAVQHDCSPM, approximately 85 % Parent.
The same measure, in the same setting: as for chain 2 MFLAVQHDCCPM, the figure is approximately 110 % Parent; as for chain 2 MFLAVQHDCVPM, approximately 85 % Parent; as for chain 2 MFLAVQHDCQPM, approximately 80 % Parent.
In the case of chain 2 MFLAVQHDCDPM, the percent of parent is approximately 110 % Parent.
Still for that read-out and setting: in the case of chain 2 MFLAVQHDCPPM it was approximately 80 % Parent; in that of chain 2 MFLAVQHDCYPM, approximately 120 % Parent.

In the next test the parent is B1. The test is described as above. The source holds these as a separate data set.
Take chain 2 MFLAVQHRCRPM: the percent of parent was approximately 280 % Parent.
On the same count and under the same terms, as for chain 2 MFLAVQHSCRPM, the figure is approximately 160 % Parent; as for chain 2 MFLAVQHHCRPM, approximately 130 % Parent.
Regarding chain 2 MFLAVQHFCRPM, the percent of parent was approximately 130 % Parent.
On the same count and under the same terms, in the case of chain 2 MFLAVQHGCRPM it was approximately 130 % Parent; in that of chain 2 MFLAVQHYCRPM, approximately 130 % Parent.
Turning to chain 2 MFLAVQHNCRPM, the percent of parent was approximately 150 % Parent.
On to chain 2 MFLAVQHCCRPM, for which the percent of parent is approximately 140 % Parent.
Same read-out and setting: as for chain 2 MFLAVQHMCRPM, the figure is approximately 140 % Parent.
For chain 2 MFLAVQHWCRPM, the percent of parent is approximately 150 % Parent.
The same measure, in the same setting: in the case of chain 2 MFLAVQHECRPM it was approximately 100 % Parent; in that of chain 2 MFLAVQHPCRPM, approximately 160 % Parent.
For chain 2 MFLAVQHICRPM, the percent of parent is approximately 140 % Parent.
Same read-out and setting: in the case of chain 2 MFLAVQHLCRPM it was approximately 130 % Parent; in that of chain 2 MFLAVQHKCRPM, approximately 220 % Parent.
Regarding chain 2 MFLAVQHQCRPM, the percent of parent is approximately 160 % Parent.
For chain 2 MFLAVQHACRPM, the percent of parent was approximately 120 % Parent.
The same measure, in the same setting: in the case of chain 2 MFLAVQHVCRPM it was approximately 140 % Parent.
Same read-out and setting: as for chain 2 MFLAVQHTCRPM, the figure is approximately 130 % Parent.

Variants of B1 are the subject of the next test. Described as above. This is another data set of the same source.
Take chain 2 MFLAVQHDCRPE: the percent of parent is approximately 110 % Parent.
On the same count and under the same terms, in the case of chain 2 MFLAVQHDCRPQ it was approximately 88 % Parent; in that of chain 2 MFLAVQHDCRPA, approximately 67 % Parent.
The same measure, in the same setting: in the case of chain 2 MFLAVQHDCRPR it was approximately 200 % Parent.
With chain 2 MFLAVQHDCRPH, the percent of parent was approximately 90 % Parent.
Consider chain 2 MFLAVQHDCRPL, for which the percent of parent was approximately 90 % Parent.
On the same count and under the same terms, in the case of chain 2 MFLAVQHDCRPC it was approximately 130 % Parent.
With chain 2 MFLAVQHDCRPP, the percent of parent was approximately 90 % Parent.
For chain 2 MFLAVQHDCRPI, the percent of parent is approximately 85 % Parent.
On to chain 2 MFLAVQHDCRPS, for which the percent of parent was approximately 92 % Parent.
Same read-out and setting: in the case of chain 2 MFLAVQHDCRPT it was approximately 85 % Parent; in that of chain 2 MFLAVQHDCRPD, approximately 130 % Parent; in that of chain 2 MFLAVQHDCRPN, approximately 87 % Parent.
On the same count and under the same terms, in the case of chain 2 MFLAVQHDCRPY it was approximately 120 % Parent.
Take chain 2 MFLAVQHDCRPF: the percent of parent is approximately 100 % Parent.
As for chain 2 MFLAVQHDCRPW, the percent of parent is approximately 110 % Parent.
Still for that read-out and setting: as for chain 2 MFLAVQHDCRPG, the figure is approximately 72 % Parent; as for chain 2 MFLAVQHDCRPK, approximately 140 % Parent; as for chain 2 MFLAVQHDCRPV, approximately 90 % Parent.

In another test the parent is B1. The test is described as above. This is another data set of the same source.
chain 2 MFLAVQVDCRPM: the percent of parent is approximately 100 % Parent.
On to chain 2 MFLAVQCDCRPM, for which the percent of parent was approximately 120 % Parent.
The same measure, in the same setting: as for chain 2 MFLAVQFDCRPM, the figure is approximately 100 % Parent; as for chain 2 MFLAVQGDCRPM, approximately 90 % Parent.
As for chain 2 MFLAVQSDCRPM, the percent of parent is approximately 100 % Parent.
Same read-out and setting: as for chain 2 MFLAVQEDCRPM, the figure is approximately 95 % Parent; as for chain 2 MFLAVQLDCRPM, approximately 100 % Parent.
For the variant chain 2 MFLAVQTDCRPM, the percent of parent was approximately 95 % Parent.
For the variant chain 2 MFLAVQIDCRPM, the percent of parent is approximately 100 % Parent.
Still for that read-out and setting: as for chain 2 MFLAVQQDCRPM, the figure is approximately 110 % Parent; as for chain 2 MFLAVQWDCRPM, approximately 110 % Parent; as for chain 2 MFLAVQMDCRPM, approximately 95 % Parent.
Still for that read-out and setting: as for chain 2 MFLAVQPDCRPM, the figure is approximately 110 % Parent; as for chain 2 MFLAVQNDCRPM, approximately 100 % Parent; as for chain 2 MFLAVQKDCRPM, approximately 120 % Parent.
Still for that read-out and setting: in the case of chain 2 MFLAVQDDCRPM it was approximately 100 % Parent; in that of chain 2 MFLAVQYDCRPM, approximately 110 % Parent.
Turning to chain 2 MFLAVQADCRPM, the percent of parent is approximately 95 % Parent.
On the same count and under the same terms, as for chain 2 MFLAVQRDCRPM, the figure is approximately 140 % Parent.

In the next test the parent is B1. The description is as above. This is another data set of the same source.
On to chain 2 MFLAVQHDYRPM, for which the percent of parent is approximately 55 % Parent.
The same measure, in the same setting: in the case of chain 2 MFLAVQHDNRPM it was approximately 15 % Parent; in that of chain 2 MFLAVQHDMRPM, approximately 13 % Parent.
For the variant chain 2 MFLAVQHDVRPM, the percent of parent was approximately 13 % Parent.
Still for that read-out and setting: as for chain 2 MFLAVQHDPRPM, the figure is approximately 15 % Parent; as for chain 2 MFLAVQHDFRPM, approximately 20 % Parent; as for chain 2 MFLAVQHDWRPM, approximately 50 % Parent.
Same read-out and setting: in the case of chain 2 MFLAVQHDLRPM it was approximately 13 % Parent; in that of chain 2 MFLAVQHDQRPM, approximately 25 % Parent.
For chain 2 MFLAVQHDDRPM, the percent of parent is approximately 28 % Parent.
Still for that read-out and setting: in the case of chain 2 MFLAVQHDHRPM it was approximately 17 % Parent; in that of chain 2 MFLAVQHDGRPM, approximately 13 % Parent; in that of chain 2 MFLAVQHDRRPM, approximately 130 % Parent.
On to chain 2 MFLAVQHDIRPM, for which the percent of parent was approximately 15 % Parent.
Consider chain 2 MFLAVQHDSRPM, for which the percent of parent is approximately 13 % Parent.
Same read-out and setting: as for chain 2 MFLAVQHDARPM, the figure is approximately 25 % Parent; as for chain 2 MFLAVQHDERPM, approximately 15 % Parent.
Same read-out and setting: as for chain 2 MFLAVQHDKRPM, the figure is approximately 47 % Parent; as for chain 2 MFLAVQHDTRPM, approximately 15 % Parent.

The record behind these values is PMC12554172 (2025).
